From paper PMC9482650, “Quantitative fragmentomics allow affinity mapping of interactomes” (Nature Communications, 2022)

How the values were obtained:
Experiment in all cases: holdup assay
Set-up in all cases: key: below the threshold = too weak to quantify, mostly under pKd 3.1 to 4
APBA3_1, O96018 = molecular target: T1, APBA3_1, O96018
T1 sequence (O96018 389-490, limits assumed, looked up): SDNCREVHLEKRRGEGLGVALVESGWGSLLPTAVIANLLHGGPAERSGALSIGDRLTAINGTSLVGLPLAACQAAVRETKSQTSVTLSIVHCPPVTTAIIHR

DFNB31_1, Q9P202 = molecular target: T2, DFNB31_1, Q9P202
T2 sequence (Q9P202 135-233, limits assumed, looked up): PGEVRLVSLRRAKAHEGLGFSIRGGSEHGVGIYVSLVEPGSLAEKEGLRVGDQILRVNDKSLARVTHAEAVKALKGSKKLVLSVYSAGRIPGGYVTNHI

DLG4_3, P78352 = molecular target: DLG4_3, P78352
DLG5_1, Q8TDM6 = molecular target: DLG5_1, Q8TDM6
FRMPD4, Q14CM0 = molecular target: FRMPD4, Q14CM0
GIPC2, Q8TF65 = molecular target: GIPC2, Q8TF65
GORASP1, Q9BQQ3 = molecular target: GORASP1, Q9BQQ3
GRIP1_3, Q9Y3R0 = molecular target: T3, GRIP1_3, Q9Y3R0
T3 sequence (Q9Y3R0 247-346, limits assumed, looked up): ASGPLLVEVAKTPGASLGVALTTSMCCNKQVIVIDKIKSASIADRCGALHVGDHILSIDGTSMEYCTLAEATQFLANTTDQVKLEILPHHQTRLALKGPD

GRIP1_5, Q9Y3R0 = molecular target: T4, GRIP1_5, Q9Y3R0
T4 sequence (Q9Y3R0 568-668, limits assumed, looked up): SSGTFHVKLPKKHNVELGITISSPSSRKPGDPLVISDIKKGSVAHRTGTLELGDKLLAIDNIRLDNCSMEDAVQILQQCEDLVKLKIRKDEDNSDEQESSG

GRIP2_4, Q9C0E4 = molecular target: GRIP2_4, Q9C0E4
GRIP2_7, Q9C0E4 = molecular target: GRIP2_7, Q9C0E4
IL16_4, Q14005 = molecular target: IL16_4, Q14005
Inadl_1, Q8NI35 = molecular target: Inadl_1, Q8NI35
Inadl_6, Q8NI35 = molecular target: Inadl_6, Q8NI35
LNX1_1, Q8TBB1 = molecular target: LNX1_1, Q8TBB1
LNX1_2, Q8TBB1 = molecular target: LNX1_2, Q8TBB1
LNX1_3, Q8TBB1 = molecular target: LNX1_3, Q8TBB1
MAGI1_1, Q96QZ7 = molecular target: MAGI1_1, Q96QZ7
MAGI1_2, Q96QZ7 = molecular target: MAGI1_2, Q96QZ7
MAGI2_5, Q86UL8 = molecular target: MAGI2_5, Q86UL8
MAGI2_6, Q86UL8 = molecular target: MAGI2_6, Q86UL8
PDZRN3_1, Q9UPQ7 = molecular target: T5, PDZRN3_1, Q9UPQ7
T5 sequence (Q9UPQ7 244-349, limits assumed, looked up): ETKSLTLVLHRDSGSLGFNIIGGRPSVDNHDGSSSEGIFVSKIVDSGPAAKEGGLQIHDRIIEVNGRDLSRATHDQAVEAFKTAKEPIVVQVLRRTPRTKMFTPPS

PDZRN4_1, Q6ZMN7 = molecular target: PDZRN4_1, Q6ZMN7
PICK1, Q9NRD5 = molecular target: PICK1, Q9NRD5
RADIL, Q96JH8 = molecular target: T6, RADIL, Q96JH8
T6 sequence (Q96JH8 971-1071, limits assumed, looked up): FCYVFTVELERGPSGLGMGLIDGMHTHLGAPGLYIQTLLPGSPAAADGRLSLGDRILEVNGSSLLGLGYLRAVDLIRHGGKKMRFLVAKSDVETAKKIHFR

SCRIB_3, Q14160 = molecular target: SCRIB_3, Q14160
SNTB1, Q13884 = molecular target: T7, SNTB1, Q13884
T7 sequence (Q13884 107-205, limits assumed, looked up): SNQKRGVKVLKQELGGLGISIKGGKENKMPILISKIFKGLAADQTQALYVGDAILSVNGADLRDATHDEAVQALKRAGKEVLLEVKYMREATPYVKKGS

SNX27, Q96L92 = molecular target: SNX27, Q96L92
TX1BP3, O14907 = molecular target: T8, TX1BP3, O14907
T8 sequence (O14907 10-122, limits assumed, looked up): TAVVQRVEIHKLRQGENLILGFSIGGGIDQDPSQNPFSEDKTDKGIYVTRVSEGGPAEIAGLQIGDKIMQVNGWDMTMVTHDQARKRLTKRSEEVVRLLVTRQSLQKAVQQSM

[1] = plain residues with an end cap or a label only (N-terminal biotin on a linker: ado-ado)
[2] = modified: phospho on T at position -2 from the C-terminal residue

DLG4_3, P78352, sequence (P78352 306-403): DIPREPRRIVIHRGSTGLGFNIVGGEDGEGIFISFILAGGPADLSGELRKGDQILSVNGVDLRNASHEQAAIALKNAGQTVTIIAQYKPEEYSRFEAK
FRMPD4, Q14CM0, sequence (Q14CM0 67-160): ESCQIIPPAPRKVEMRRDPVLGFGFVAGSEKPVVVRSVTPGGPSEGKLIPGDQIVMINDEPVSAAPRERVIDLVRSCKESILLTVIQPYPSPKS
GORASP1, Q9BQQ3, sequence (Q9BQQ3 1-208): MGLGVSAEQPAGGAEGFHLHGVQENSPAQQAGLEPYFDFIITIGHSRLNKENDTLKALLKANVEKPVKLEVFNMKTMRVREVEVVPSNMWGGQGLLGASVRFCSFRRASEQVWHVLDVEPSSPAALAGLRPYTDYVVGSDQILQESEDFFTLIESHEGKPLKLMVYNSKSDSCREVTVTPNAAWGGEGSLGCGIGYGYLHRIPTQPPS
GRIP2_4, Q9C0E4, sequence (Q9C0E4 446-548): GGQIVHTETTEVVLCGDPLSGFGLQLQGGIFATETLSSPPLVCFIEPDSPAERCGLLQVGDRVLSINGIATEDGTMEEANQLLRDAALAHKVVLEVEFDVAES
Inadl_1, Q8NI35, sequence (Q8NI35 113-229): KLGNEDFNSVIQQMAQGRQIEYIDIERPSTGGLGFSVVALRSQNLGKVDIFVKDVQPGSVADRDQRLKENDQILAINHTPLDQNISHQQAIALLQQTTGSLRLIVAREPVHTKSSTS
IL16_4, Q14005, sequence (Q14005 1229-1329): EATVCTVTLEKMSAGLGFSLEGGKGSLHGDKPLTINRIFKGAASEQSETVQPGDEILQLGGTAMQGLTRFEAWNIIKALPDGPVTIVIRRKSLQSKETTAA
PDZRN4_1, Q6ZMN7, sequence (Q6ZMN7 213-318): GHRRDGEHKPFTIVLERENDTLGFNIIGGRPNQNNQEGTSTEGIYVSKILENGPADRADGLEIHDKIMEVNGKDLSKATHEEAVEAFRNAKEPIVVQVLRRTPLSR
LNX1_1, Q8TBB1, sequence (Q8TBB1 261-371): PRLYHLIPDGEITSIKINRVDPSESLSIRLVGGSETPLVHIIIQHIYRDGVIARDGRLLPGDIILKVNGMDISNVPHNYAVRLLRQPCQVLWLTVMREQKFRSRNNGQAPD
LNX1_3, Q8TBB1, sequence (Q8TBB1 500-596): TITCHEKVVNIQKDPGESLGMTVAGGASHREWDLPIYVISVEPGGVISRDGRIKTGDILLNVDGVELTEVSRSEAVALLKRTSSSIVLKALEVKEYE
PICK1, Q9NRD5, sequence (Q9NRD5 17-115): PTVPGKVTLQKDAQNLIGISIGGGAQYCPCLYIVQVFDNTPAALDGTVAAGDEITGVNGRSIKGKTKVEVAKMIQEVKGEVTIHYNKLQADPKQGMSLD
LNX1_2, Q8TBB1, sequence (Q8TBB1 371-470): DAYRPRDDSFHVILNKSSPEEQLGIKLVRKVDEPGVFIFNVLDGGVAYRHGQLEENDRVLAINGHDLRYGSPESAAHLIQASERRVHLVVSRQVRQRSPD
DLG5_1, Q8TDM6, sequence (Q8TDM6 617-713): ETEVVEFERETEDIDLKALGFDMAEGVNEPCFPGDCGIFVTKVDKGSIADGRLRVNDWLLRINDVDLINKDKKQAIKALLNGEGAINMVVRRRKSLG
MAGI1_1, Q96QZ7, sequence (Q96QZ7 1-106): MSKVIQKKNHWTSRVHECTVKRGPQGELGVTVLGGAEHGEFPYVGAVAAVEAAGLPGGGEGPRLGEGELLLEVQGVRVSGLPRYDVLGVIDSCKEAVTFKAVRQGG
SCRIB_3, Q14160, sequence (Q14160 999-1103): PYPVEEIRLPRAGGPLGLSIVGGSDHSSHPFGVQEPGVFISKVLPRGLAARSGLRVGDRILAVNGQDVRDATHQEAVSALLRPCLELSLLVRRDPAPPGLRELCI
GRIP2_7, Q9C0E4, sequence (Q9C0E4 934-1023): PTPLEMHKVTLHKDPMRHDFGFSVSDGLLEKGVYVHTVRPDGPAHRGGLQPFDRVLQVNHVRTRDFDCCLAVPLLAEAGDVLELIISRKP
MAGI2_6, Q86UL8, sequence (Q86UL8 1141-1229): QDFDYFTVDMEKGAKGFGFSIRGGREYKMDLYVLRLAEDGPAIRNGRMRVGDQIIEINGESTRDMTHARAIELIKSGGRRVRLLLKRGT
MAGI1_2, Q96QZ7, sequence (Q96QZ7 456-580): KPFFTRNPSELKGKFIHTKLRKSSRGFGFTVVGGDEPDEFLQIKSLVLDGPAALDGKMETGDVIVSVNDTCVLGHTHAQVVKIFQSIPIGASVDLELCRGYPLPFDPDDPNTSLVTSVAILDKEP
MAGI2_5, Q86UL8, sequence (Q86UL8 915-1017): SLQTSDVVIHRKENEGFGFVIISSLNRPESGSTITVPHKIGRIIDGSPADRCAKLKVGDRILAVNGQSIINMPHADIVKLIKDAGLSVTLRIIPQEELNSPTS
Inadl_6, Q8NI35, sequence (Q8NI35 1058-1167): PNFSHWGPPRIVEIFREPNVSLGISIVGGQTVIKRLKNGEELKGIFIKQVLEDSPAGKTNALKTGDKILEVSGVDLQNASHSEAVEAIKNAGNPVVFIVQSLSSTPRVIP
GIPC2, Q8TF65, sequence (Q8TF65 112-203): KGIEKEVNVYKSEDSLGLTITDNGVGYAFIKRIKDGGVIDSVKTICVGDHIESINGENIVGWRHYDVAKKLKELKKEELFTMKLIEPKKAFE

SAGADSETHC [SLCO1B1, Q9Y6L6]
pKd (APBA3_1, O96018; [1]): below the threshold
pKd (DFNB31_1, Q9P202; [1]): below the threshold
pKd (DLG4_3, P78352; [1]): below the threshold
pKd (DLG5_1, Q8TDM6; [1]): below the threshold
pKd (FRMPD4, Q14CM0; [1]): below the threshold
pKd (GIPC2, Q8TF65; [1]): 3.71
pKd (GORASP1, Q9BQQ3; [1]): below the threshold
pKd (GRIP1_3, Q9Y3R0; [1]): below the threshold
pKd (GRIP1_5, Q9Y3R0; [1]): below the threshold
pKd (GRIP2_4, Q9C0E4; [1]): below the threshold
pKd (GRIP2_7, Q9C0E4; [1]): below the threshold
pKd (IL16_4, Q14005; [1]): below the threshold
pKd (Inadl_1, Q8NI35; [1]): below the threshold
pKd (Inadl_6, Q8NI35; [1]): below the threshold
pKd (LNX1_1, Q8TBB1; [1]): below the threshold
pKd (LNX1_2, Q8TBB1; [1]): below the threshold
pKd (LNX1_3, Q8TBB1; [1]): below the threshold
pKd (MAGI1_1, Q96QZ7; [1]): below the threshold
pKd (MAGI1_2, Q96QZ7; [1]): below the threshold
pKd (MAGI2_5, Q86UL8; [1]): below the threshold
pKd (MAGI2_6, Q86UL8; [1]): below the threshold
pKd (PDZRN3_1, Q9UPQ7; [1]): below the threshold
pKd (PDZRN4_1, Q6ZMN7; [1]): below the threshold
pKd (PICK1, Q9NRD5; [1]): below the threshold
pKd (RADIL, Q96JH8; [1]): below the threshold
pKd (SCRIB_3, Q14160; [1]): 3.88
pKd (SNTB1, Q13884; [1]): 3.87
pKd (SNX27, Q96L92; [1]): 4.65
pKd (TX1BP3, O14907; [1]): below the threshold

GVHSNDHSVV [LPAR1, Q92633]
pKd (APBA3_1, O96018; [1]): below the threshold
pKd (DFNB31_1, Q9P202; [1]): below the threshold
pKd (DLG4_3, P78352; [1]): below the threshold
pKd (DLG5_1, Q8TDM6; [1]): below the threshold
pKd (FRMPD4, Q14CM0; [1]): below the threshold
pKd (GIPC2, Q8TF65; [1]): below the threshold
pKd (GORASP1, Q9BQQ3; [1]): 3.48
pKd (GRIP1_3, Q9Y3R0; [1]): below the threshold
pKd (GRIP1_5, Q9Y3R0; [1]): below the threshold
pKd (GRIP2_4, Q9C0E4; [1]): below the threshold
pKd (GRIP2_7, Q9C0E4; [1]): below the threshold
pKd (IL16_4, Q14005; [1]): 3.76
pKd (Inadl_1, Q8NI35; [1]): below the threshold
pKd (Inadl_6, Q8NI35; [1]): below the threshold
pKd (LNX1_1, Q8TBB1; [1]): below the threshold
pKd (LNX1_2, Q8TBB1; [1]): below the threshold
pKd (LNX1_3, Q8TBB1; [1]): below the threshold
pKd (MAGI1_1, Q96QZ7; [1]): below the threshold
pKd (MAGI1_2, Q96QZ7; [1]): below the threshold
pKd (MAGI2_5, Q86UL8; [1]): below the threshold
pKd (MAGI2_6, Q86UL8; [1]): below the threshold
pKd (PDZRN3_1, Q9UPQ7; [1]): below the threshold
pKd (PDZRN4_1, Q6ZMN7; [1]): below the threshold
pKd (PICK1, Q9NRD5; [1]): below the threshold
pKd (RADIL, Q96JH8; [1]): 3.62
pKd (SCRIB_3, Q14160; [1]): below the threshold
pKd (SNTB1, Q13884; [1]): 3.69
pKd (SNX27, Q96L92; [1]): below the threshold
pKd (TX1BP3, O14907; [1]): below the threshold

DYSNLRETDI [ADRA1D, P25100]
pKd (APBA3_1, O96018; [1]): below the threshold
pKd (DFNB31_1, Q9P202; [1]): 5.02
pKd (DLG4_3, P78352; [1]): below the threshold
pKd (DLG5_1, Q8TDM6; [1]): 3.5
pKd (FRMPD4, Q14CM0; [1]): below the threshold
pKd (GIPC2, Q8TF65; [1]): 3.8
pKd (GORASP1, Q9BQQ3; [1]): below the threshold
pKd (GRIP1_3, Q9Y3R0; [1]): below the threshold
pKd (GRIP1_5, Q9Y3R0; [1]): below the threshold
pKd (GRIP2_4, Q9C0E4; [1]): below the threshold
pKd (GRIP2_7, Q9C0E4; [1]): below the threshold
pKd (IL16_4, Q14005; [1]): below the threshold
pKd (Inadl_1, Q8NI35; [1]): below the threshold
pKd (Inadl_6, Q8NI35; [1]): 3.73
pKd (LNX1_1, Q8TBB1; [1]): 4.44
pKd (LNX1_2, Q8TBB1; [1]): below the threshold
pKd (LNX1_3, Q8TBB1; [1]): below the threshold
pKd (MAGI1_1, Q96QZ7; [1]): below the threshold
pKd (MAGI1_2, Q96QZ7; [1]): below the threshold
pKd (MAGI2_5, Q86UL8; [1]): below the threshold
pKd (MAGI2_6, Q86UL8; [1]): 4.31
pKd (PDZRN3_1, Q9UPQ7; [1]): 3.69
pKd (PDZRN4_1, Q6ZMN7; [1]): below the threshold
pKd (PICK1, Q9NRD5; [1]): 4.1
pKd (RADIL, Q96JH8; [1]): below the threshold
pKd (SCRIB_3, Q14160; [1]): 5.27
pKd (SNTB1, Q13884; [1]): 5.57
pKd (SNX27, Q96L92; [1]): 4.21
pKd (TX1BP3, O14907; [1]): 4.51

SRSRRRETAL [HPV33-E6_-2P, P06427]
pKd (APBA3_1, O96018; [2]): below the threshold
pKd (DFNB31_1, Q9P202; [2]): below the threshold
pKd (DLG4_3, P78352; [2]): below the threshold
pKd (DLG5_1, Q8TDM6; [2]): below the threshold
pKd (FRMPD4, Q14CM0; [2]): 3.73
pKd (GIPC2, Q8TF65; [2]): below the threshold
pKd (GORASP1, Q9BQQ3; [2]): below the threshold
pKd (GRIP1_3, Q9Y3R0; [2]): below the threshold
pKd (GRIP1_5, Q9Y3R0; [2]): below the threshold
pKd (GRIP2_4, Q9C0E4; [2]): below the threshold
pKd (GRIP2_7, Q9C0E4; [2]): below the threshold
pKd (IL16_4, Q14005; [2]): below the threshold
pKd (Inadl_1, Q8NI35; [2]): below the threshold
pKd (Inadl_6, Q8NI35; [2]): below the threshold
pKd (LNX1_1, Q8TBB1; [2]): below the threshold
pKd (LNX1_2, Q8TBB1; [2]): below the threshold
pKd (LNX1_3, Q8TBB1; [2]): below the threshold
pKd (MAGI1_1, Q96QZ7; [2]): below the threshold
pKd (MAGI1_2, Q96QZ7; [2]): below the threshold
pKd (MAGI2_5, Q86UL8; [2]): below the threshold
pKd (MAGI2_6, Q86UL8; [2]): below the threshold
pKd (PDZRN3_1, Q9UPQ7; [2]): below the threshold
pKd (PDZRN4_1, Q6ZMN7; [2]): below the threshold
pKd (PICK1, Q9NRD5; [2]): below the threshold
pKd (RADIL, Q96JH8; [2]): below the threshold
pKd (SCRIB_3, Q14160; [2]): below the threshold
pKd (SNTB1, Q13884; [2]): below the threshold
pKd (SNX27, Q96L92; [2]): below the threshold
pKd (TX1BP3, O14907; [2]): below the threshold

QLKSGRDSTV [TMEM178A, Q8NBL3]
pKd (APBA3_1, O96018; [1]): below the threshold
pKd (DFNB31_1, Q9P202; [1]): 3.6
pKd (DLG4_3, P78352; [1]): below the threshold
pKd (DLG5_1, Q8TDM6; [1]): 3.83
pKd (FRMPD4, Q14CM0; [1]): 3.61
pKd (GIPC2, Q8TF65; [1]): 3.87
pKd (GORASP1, Q9BQQ3; [1]): below the threshold
pKd (GRIP1_3, Q9Y3R0; [1]): below the threshold
pKd (GRIP1_5, Q9Y3R0; [1]): below the threshold
pKd (GRIP2_4, Q9C0E4; [1]): below the threshold
pKd (GRIP2_7, Q9C0E4; [1]): 3.55
pKd (IL16_4, Q14005; [1]): 3.83
pKd (Inadl_1, Q8NI35; [1]): below the threshold
pKd (Inadl_6, Q8NI35; [1]): below the threshold
pKd (LNX1_1, Q8TBB1; [1]): below the threshold
pKd (LNX1_2, Q8TBB1; [1]): 3.84
pKd (LNX1_3, Q8TBB1; [1]): below the threshold
pKd (MAGI1_1, Q96QZ7; [1]): below the threshold
pKd (MAGI1_2, Q96QZ7; [1]): 3.49
pKd (MAGI2_5, Q86UL8; [1]): below the threshold
pKd (MAGI2_6, Q86UL8; [1]): 3.85
pKd (PDZRN3_1, Q9UPQ7; [1]): 3.74
pKd (PDZRN4_1, Q6ZMN7; [1]): 3.53
pKd (PICK1, Q9NRD5; [1]): 4.35
pKd (RADIL, Q96JH8; [1]): 3.51
pKd (SCRIB_3, Q14160; [1]): 3.48
pKd (SNTB1, Q13884; [1]): 4.1
pKd (SNX27, Q96L92; [1]): 4.01
pKd (TX1BP3, O14907; [1]): 3.91
